Laboratory results: patent US20170114141A1 (Hoffmann-La Roche, published 2017)

Key:
[1] = molecular target: T1, hybrid 4-1BB Fc(kih) Construct 1 (mu4-1BB D1/hu4-1BB D2) (murine domain 1, human domain 2, UniProt P0DOX5 223-449 = IgG part); assay: SPR, IgG captured by anti-Fab, hybrid 4-1BB analyte; 0 = no binding
T1 construct: also called mu4-1BBD1/hu4-1BBD2-Fc(kih)

[2] = molecular target: T2, human 4-1BB on cells (human, UniProt Q07011 24-255); assay: flow cytometry, activated human CD8 T cells
T2 construct: also called HeLa-hu4-1BB-NFkB-luc

[3] = molecular target: T2, human 4-1BB on cells; assay: cell-based or functional assay
[4] = molecular target: T3, hybrid 4-1BB Fc(kih) Construct 2 (hu4-1BB D1/mu4-1BB D2) (human domain 1, murine domain 2, UniProt P0DOX5 223-449 = IgG part); assay: SPR, IgG captured by anti-Fab, hybrid 4-1BB analyte; 0 = no binding
T3 construct: also called hu4-1BBD1/mu4-1BBD2-Fc(kih)

[5] = molecular target: T4, hu4-1BB D1 Fc(kih) Construct 3 (human, UniProt P0DOX5 223-449 = IgG part); assay: SPR, construct 3 on CM5 chip, IgG analyte; 0 = no binding
T4 construct: also called Human 4-1BB-D1 (construct 3); human 4-1BB Domain 1

[6] = molecular target: T5, human OX40 on cells (human, UniProt P43489 29-277); assay: cell-based or functional assay
T5 sequence: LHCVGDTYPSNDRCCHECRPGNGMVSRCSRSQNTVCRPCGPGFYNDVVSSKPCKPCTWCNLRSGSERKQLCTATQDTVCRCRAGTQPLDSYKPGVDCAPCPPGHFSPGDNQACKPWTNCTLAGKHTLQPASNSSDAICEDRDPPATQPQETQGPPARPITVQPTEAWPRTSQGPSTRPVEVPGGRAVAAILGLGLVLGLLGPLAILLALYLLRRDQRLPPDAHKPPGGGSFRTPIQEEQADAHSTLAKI

[7] = molecular target: T5, human OX40 on cells; assay: cell-based or functional assay; remark: listed apart in the source
[8] = molecular target: T5, human OX40 on cells; assay: cell-based or functional assay; remark: listed apart in the source
[9] = molecular target: T6, huOX40-SNAP fusion on Hek293 EBNA cells (human, UniProt P43489 29-277, FRET donor Terbium on the SNAP tag); assay: TagLite FRET competition against d2-labelled 49B4 IgG, t = 2 h
T6 construct: also called hu OX40 (TagLite); not shown: SNAP tag
T6 sequence: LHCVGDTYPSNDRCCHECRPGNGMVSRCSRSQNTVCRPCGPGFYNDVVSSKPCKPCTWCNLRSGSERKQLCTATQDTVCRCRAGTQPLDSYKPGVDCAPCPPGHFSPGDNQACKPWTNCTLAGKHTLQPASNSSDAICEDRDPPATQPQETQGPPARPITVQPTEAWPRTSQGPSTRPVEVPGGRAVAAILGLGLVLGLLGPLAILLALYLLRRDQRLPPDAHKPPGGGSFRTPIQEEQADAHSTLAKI

B1: 12B3 P329GLALA IgG1 (antibody, V domains shown)
VH: QVQLVQSGAEVKKPGSSVKVSCKASGGTFSSYAISWVRQAPGQGLEWMGGIIPIFGTANYAQKFQGRVTITADKSTSTAYMELSSLRSEDTAVYYCARSEFRFYADFDYWGQGTTVTVSS
VL: not shown
notes: anti-4-1BB, human IgG1 P329G LALA; also called clone 12B3
binding result [1]: no binding (tested: 200 nM) | EC50 [2]: 430 pM | EC50 of increase of IFNg secretion in activated CD8+ T cells, surface-immobilized antibody with suboptimal anti-CD3 [3]: 70 pM

B2: 20G2 P329GLALA IgG1 (antibody, V domains shown)
VH: QVQLVQSGAEVKKPGSSVKVSCKASGGTFSSYAISWVRQAPGQGLEWMGGIIPIFGTANYAQKFQGRVTITADKSTSTAYMELSSLRSEDTAVYYCARSYYWESYPFDYWGQGTTVTVSS
VL: DIQMTQSPSTLSASVGDRVTITCRASQSISSWLAWYQQKPGKAPKLLIYDASSLESGVPSRFSGSGSGTEFTLTISSLQPDDFATYYCQQQHSYYTFGQGTKVEIKR
notes: anti-mouse 4-1BB, human IgG1 P329G LALA; also called clone 20G2; anti-mouse 4-1BB clone 20G2 huIgG1 P329G LALA
binding result [4]: no binding (tested: 200 nM) | binding result [5]: no binding (tested: 200 nM)

B3: 9B11 P329GLALA IgG1 (antibody, V domains shown)
VH: QVQLVQSGAEVKKPGSSVKVSCKASGGTFSSYAISWVRQAPGQGLEWMGGIIPIFGTANYAQKFQGRVTITADKSTSTAYMELSSLRSEDTAVYYCARSSGAYPGYFDYWGQGTTVTVSS
VL: not shown
notes: anti-4-1BB, human IgG1 P329G LALA; also called clone 9B11
binding result [1]: no binding (tested: 200 nM) | EC50 of increase of IFNg secretion in activated CD8+ T cells, surface-immobilized antibody with suboptimal anti-CD3 [3]: 120 pM

B4: 8H9 P329GLALA IgG1 (antibody, V domains shown)
VH: QVQLVQSGAEVKKPGSSVKVSCKASGGTFSSYAISWVRQAPGQGLEWMGGIIPIFGTANYAQKFQGRVTITADKSTSTAYMELSSLRSEDTAVYYCAREYGWMDYWGQGTTVTVSS
VL: not shown
EC50 of rescuing suboptimal TCR stimulation, plate-immobilized antibody, pre-activated human CD4 T cells [6]: 3 pM | EC50 of NFkB-luciferase activation, HeLa_hOx40_NFkB_luc1 cells with secondary anti-human IgG Fc antibody [7]: 660 pM

B5: 1G4 P329GLALA IgG1 (antibody, V domains shown)
VH: QVQLVQSGAEVKKPGSSVKVSCKASGGTFSSYAISWVRQAPGQGLEWMGGIIPIFGTANYAQKFQGRVTITADKSTSTAYMELSSLRSEDTAVYYCAREYGSMDYWGQGTTVTVSS
VL: not shown
EC50 of rescuing suboptimal TCR stimulation, plate-immobilized antibody, pre-activated human CD4 T cells [6]: 697 pM | EC50 of rescuing suboptimal TCR stimulation, plate-immobilized construct, pre-activated human CD4 T cells [8]: 370 pM | EC50 of NFkB-luciferase activation, HeLa_hOx40_NFkB_luc1 cells with secondary anti-human IgG Fc antibody [7]: 3590 pM

B6: 49B4 P329GLALA IgG1 (antibody, V domains shown)
VH: QVQLVQSGAEVKKPGSSVKVSCKASGGTFSSYAISWVRQAPGQGLEWMGGIIPIFGTANYAQKFQGRVTITADKSTSTAYMELSSLRSEDTAVYYCAREYYRGPYDYWGQGTTVTVSS
VL: DIQMTQSPSTLSASVGDRVTITCRASQSISSWLAWYQQKPGKAPKLLIYDASSLESGVPSRFSGSGSGTEFTLTISSLQPDDFATYYCQQYSSQPYTFGQGTKVEIKR
notes: anti-OX40, human IgG1 P329G LALA; the TagLite assay only says (49B4) IgG, one portion labelled with d2; also called clone 49B4; 49B4 IgG1
EC50 of rescuing suboptimal TCR stimulation, plate-immobilized antibody, pre-activated human CD4 T cells [6]: 591 pM | EC50 [9]: 870 pM | EC50 of NFkB-luciferase activation, HeLa_hOx40_NFkB_luc1 cells with secondary anti-human IgG Fc antibody [7]: 2420 pM

B7: 20B7 P329GLALA IgG1 (antibody, V domains shown)
VH: QVQLVQSGAEVKKPGSSVKVSCKASGGTFSSYAISWVRQAPGQGLEWMGGIIPIFGTANYAQKFQGRVTITADKSTSTAYMELSSLRSEDTAVYYCARVNYPYSYWGDFDYWGQGTTVTVSS
VL: DIQMTQSPSTLSASVGDRVTITCRASQSISSWLAWYQQKPGKAPKLLIYDASSLESGVPSRFSGSGSGTEFTLTISSLQPDDFATYYCQQYQAFSLTFGQGTKVEIKR
EC50 of rescuing suboptimal TCR stimulation, plate-immobilized antibody, pre-activated human CD4 T cells [6]: 90 pM | EC50 of NFkB-luciferase activation, HeLa_hOx40_NFkB_luc1 cells with secondary anti-human IgG Fc antibody [7]: 2270 pM
